In PMC9425443 (RSC Advances, 2022):
Where a name gives a salt, the structure may show the parent alone.

Assays:
[1] = system: CC(C)CCC[C@@H](C)[C@H]1CC[C@H]2[C@@H]3CCC4=CC(=O)CC[C@]4(C)[C@H]3CC[C@]12C; test: purified protein, by the assay type; details: pH 7.5
recombinant CYP142A1 = recombinant CYP142A1 (Mycobacterium tuberculosis, UniProt P9WPL5); details: pH 7.4
Sequence of recombinant CYP142A1 (P9WPL5 whole entry): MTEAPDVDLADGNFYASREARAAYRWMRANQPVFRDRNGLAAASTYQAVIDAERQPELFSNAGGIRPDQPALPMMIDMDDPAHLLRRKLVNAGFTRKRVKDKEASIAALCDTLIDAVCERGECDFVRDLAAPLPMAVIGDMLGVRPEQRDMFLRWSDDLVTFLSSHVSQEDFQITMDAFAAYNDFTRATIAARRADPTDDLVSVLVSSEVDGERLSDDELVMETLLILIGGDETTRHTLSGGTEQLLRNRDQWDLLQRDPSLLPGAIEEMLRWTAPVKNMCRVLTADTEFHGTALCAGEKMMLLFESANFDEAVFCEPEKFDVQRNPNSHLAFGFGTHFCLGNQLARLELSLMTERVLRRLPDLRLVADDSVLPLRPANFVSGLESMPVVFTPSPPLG

| Compound | Km [1] [µM] | kcat [1] [s⁻¹] | Kd (recombinant CYP142A1) [µM] |
| --- | --- | --- | --- |
| (Mycobacterium tuberculosis H37Rv) | 35 ± 5.4 | 0.128 ± 0.00717 |  |
| Cholesteryl propionate |  |  | 45 ± 7 |
| CC(C)CCC[C@@H](C)[C@H]1CC[C@H]2[C@@H]3CC=C4C[C@@H](OS(=O)(=O)O)CC[C@]4(C)[C@H]3CC[C@]12C [Cholesteryl sulfate] |  |  | 27 ± 6.9 |
